# Results published in US20150368652A1.
# Molecular target: Kcna2 protein (Kv1.2), endogenous in rat dorsal root ganglion neurons (rat) (UniProt P63142)
# Test: cell-based or functional assay
# Sequence of UniProt P63142 (P63142 whole entry): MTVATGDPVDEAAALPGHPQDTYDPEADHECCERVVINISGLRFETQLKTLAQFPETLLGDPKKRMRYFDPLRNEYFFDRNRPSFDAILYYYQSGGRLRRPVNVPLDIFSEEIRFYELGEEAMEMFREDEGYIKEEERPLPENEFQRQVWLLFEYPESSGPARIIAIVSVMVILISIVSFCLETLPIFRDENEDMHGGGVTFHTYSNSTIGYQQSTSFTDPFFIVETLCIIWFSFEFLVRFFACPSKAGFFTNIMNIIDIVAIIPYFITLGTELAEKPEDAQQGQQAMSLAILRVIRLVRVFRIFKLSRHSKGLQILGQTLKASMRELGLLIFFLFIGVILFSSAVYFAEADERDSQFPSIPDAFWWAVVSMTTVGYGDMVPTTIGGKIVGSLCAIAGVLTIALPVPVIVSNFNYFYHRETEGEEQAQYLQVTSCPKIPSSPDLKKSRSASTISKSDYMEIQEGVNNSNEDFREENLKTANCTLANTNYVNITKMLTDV
substance,measurement,value
maurotoxin (from UniProt P80719 1-34) (peptide),"total voltage-gated potassium current retained at +50 mV after 100 nM MTX, large DRG neurons, Kcna2 antisense-treated group (Kcna2 downregulated)",92.3 % of current
same,"total voltage-gated potassium current retained at +50 mV after 100 nM MTX, large DRG neurons, control group (whole-cell voltage clamp)",81.7 % of current
same,"total voltage-gated potassium current retained at +50 mV after 100 nM MTX, medium DRG neurons, Kcna2 antisense-treated group (Kcna2 downregulated)",94.9 % of current
same,"total voltage-gated potassium current retained at +50 mV after 100 nM MTX, medium DRG neurons, control group (whole-cell voltage clamp)",85.1 % of current
